Measured values taken from PMC3605045, “GH1-family 6-P-β-glucosidases from human microbiome lactic acid bacteria” (Acta Crystallographica Section D: Biological Crystallography, 2013).

Molecular target: the molecule itself
Assay: SEC; Superdex 200 16/60, 20 mM HEPES-NaOH pH 8.0, 250 mM NaCl, 2 mM DTT, proteins ~3 mg/ml, 1 ml/min, calibrated with ferritin, aldolase, conalbumin and ovalbumin; oligomeric state from the elution volume

B1: 6-P-β-glucosidase from Streptococcus mutans UA159 (SmBgl) (enzyme)
chain: SNAMSKLPENFLWGGAVAAHQLEGGWQEGGKGISVADVMTAGRHGVAREITAGVLEGKYYPNHEAIDFYHHYKEDVKLFAEMGFKCFRTSIAWTRIFPKGDEAEPNEAGLQFYDDLFDECLKYGIEPVVTLSHFELPYHLVTEYGGFTNRKVIDFFVHFAEVCFRRYKDKVKYWMTFNEINNQANYQEDFAPFTNSGIVYKEGDDREAIMYQAAHYELVASARAVKIGHAINPNLNIGCMVAMCPIYPATCNPKDILMAQKAMQKRYYFADVHVHGFYPEHIFKYWERKAIKVDFTERDKKDLFEGTVDYIGFSYYMSFVIDAHRENNPYYDYLETEDLVKNPYVKASDWDWQIDPQGLRYALNWFTDMYHLPLFIVENGFGAIDQVEADGMVHDDYRIDYLGAHIKEMIKAVDEDGVELMGYTPWGCIDLVSAGTGEMRKRYGFIYVDKDDEGKGTLKRSPKLSFNWYKEVIASNGDDI
notes: non-natural N-terminal extension left after TEV cleavage of the His6 tag (vector pMCSG7); 6-P-β-glucosidase Bgl of Streptococcus mutans UA159, 477 residues (Met1-Ile477), amplified from genomic DNA; The SAD structure (3pn8) was solved from selenomethionine-labelled protein; source: E. coli BL21 (DE3) Magic, purified (IMAC-I, SEC on Superdex 200, TEV cleavage of the His6 tag, IMAC-II); not shown: …
In the case of B1, the “stoichiometry N” value is reported as 2.
